Measured values as given in US20220409701A1, “PROCESS FOR PRODUCING A TABLET COMPRISING GLP-1 PEPTIDES” (Novo Nordisk A/S, priority 2019, published 2022).

Assay: Isoelectric point (pI) of the GLP-1 peptide
Format: physicochemical
Conditions: pH value where the peptide carries no net charge
Excerpt: Exemplary non-volatile bases are sodium hydroxide, potassium hydroxide, buffers selected from e.g. a phosphate buffer, a TRIS buffer, an acetate buffer. The ‘pI’ as used herein refers to the isoelectric point of the GLP-1 peptide, i.e. the pH value where the peptide carried no net charge.

| Substance | pI |
| --- | --- |
| N^6,26-{18-[N-(17-carboxyheptadecanoyl)-L-γ-glutamyl]-10-oxo-3,6,12,15-tetraoxa-9,18-diazaoctadecanoyl}-[8-(2-amino-2-propanoic acid), 34-L-arginine]human glucagon-like peptide 1(7-37) [semaglutide] | about 5.4 |
| Nε27-[2-[2-[2-[[2-[2-[2-[[(4S)-4-carboxy-4-[10-(4-carboxyphenoxy)decanoylamino]butanoyl]amino]ethoxy]ethoxy]acetyl]amino]ethoxy]ethoxy]acetyl], Nε36-[2-[2-[2-[[2-[2-[2-[[(4S)-4-carboxy-4-[10-(4-carboxyphenoxy)decanoylamino]butanoyl]amino]ethoxy]ethoxy]acetyl]amino]ethoxy]ethoxy]a cetyl]-[Aib8,Glu22,Arg26,Lys27,Glu30,Arg34,Lys36]-GLP-1-(7-37)-peptidyl-Glu-Gly [Compound A] | about 4.6 |
